Test results published in CN117425675A (XINSHI BIOPHARMACEUTICAL CO LTD, dated 2024).
Substitutions are numbered along the chain they refer to. Names and notes keep the numbering of the source.

T1: human TNFR2 expressed on cells (stably overexpressed on HEK293T, CHO-K1 or Jurkat cells; endogenous on THP1) (human (Homo sapiens), UniProt P20333 23-461)
T1 construct: also called 人TNFR2; hTNFR2
T1 sequence: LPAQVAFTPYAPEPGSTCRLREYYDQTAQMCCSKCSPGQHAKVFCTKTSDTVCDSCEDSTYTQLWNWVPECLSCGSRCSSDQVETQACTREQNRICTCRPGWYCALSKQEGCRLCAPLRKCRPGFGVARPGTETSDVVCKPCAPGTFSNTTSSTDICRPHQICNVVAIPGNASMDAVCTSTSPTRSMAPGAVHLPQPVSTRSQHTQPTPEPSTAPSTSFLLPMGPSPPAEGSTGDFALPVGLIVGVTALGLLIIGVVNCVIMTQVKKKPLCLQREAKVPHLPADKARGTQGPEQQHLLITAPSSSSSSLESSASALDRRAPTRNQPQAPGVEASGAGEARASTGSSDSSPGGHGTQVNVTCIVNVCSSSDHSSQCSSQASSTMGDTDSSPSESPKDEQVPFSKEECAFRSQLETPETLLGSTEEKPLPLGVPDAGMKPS

T2: mouse TNFR2 stably overexpressed on HEK293T cells (mouse (Mus musculus), UniProt P25119 23-474)
T2 construct: also called 鼠TNFR2
T2 sequence: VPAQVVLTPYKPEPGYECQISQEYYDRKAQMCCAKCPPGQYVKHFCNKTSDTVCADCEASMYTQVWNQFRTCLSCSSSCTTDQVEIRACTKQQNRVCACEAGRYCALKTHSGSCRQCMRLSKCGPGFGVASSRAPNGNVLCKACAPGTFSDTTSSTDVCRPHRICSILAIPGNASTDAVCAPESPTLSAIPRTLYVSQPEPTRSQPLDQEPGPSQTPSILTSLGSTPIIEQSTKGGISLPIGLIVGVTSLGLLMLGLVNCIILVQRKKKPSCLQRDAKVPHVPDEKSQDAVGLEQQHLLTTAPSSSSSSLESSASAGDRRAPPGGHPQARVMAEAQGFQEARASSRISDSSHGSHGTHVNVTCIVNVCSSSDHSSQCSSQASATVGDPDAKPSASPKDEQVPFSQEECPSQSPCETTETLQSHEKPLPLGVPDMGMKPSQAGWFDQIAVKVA

T3: human TNFR1 stably overexpressed on CHO-K1 cells (human (Homo sapiens), UniProt P19438 30-455)
T3 construct: also called 人TNFR1; TNFRSF1A
T3 sequence: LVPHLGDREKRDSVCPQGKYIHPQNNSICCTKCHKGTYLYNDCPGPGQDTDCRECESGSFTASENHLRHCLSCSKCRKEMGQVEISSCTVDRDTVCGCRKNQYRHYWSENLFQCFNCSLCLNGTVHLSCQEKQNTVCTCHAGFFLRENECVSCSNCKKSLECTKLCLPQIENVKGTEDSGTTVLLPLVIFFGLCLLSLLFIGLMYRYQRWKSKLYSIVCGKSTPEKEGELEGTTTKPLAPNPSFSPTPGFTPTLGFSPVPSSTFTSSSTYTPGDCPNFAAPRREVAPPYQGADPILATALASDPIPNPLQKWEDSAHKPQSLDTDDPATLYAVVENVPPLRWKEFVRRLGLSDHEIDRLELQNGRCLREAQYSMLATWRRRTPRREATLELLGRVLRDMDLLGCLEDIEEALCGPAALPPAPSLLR

B1: R2_mAb-3 (antibody, V domains shown)
VH: QVQLQESGPGLVKPSETLSLTCTVSGGSISSYYWSWIRQAPGKGLEWIGYIYYSGSTNYNPSLKSRVTISVDTSKNQFSLKLSSVTAADTAVYYCARDDGSSDYGMDVWGQGTTVTVSS
VL: AIQLTQSPSSLSASVGDRVTITCRASQGISSALAWYQQKPGKAPKLLIYDASSLESGVPSRFTGSGTDFTLTISSLQPEDFATYYCQQFNNYMYTFGQGTKLEIK
notes: also called R2-3
B2: R2_mAb-5 (antibody, V domains shown)
VH: QVQLVQSGAEVKKPGASVTVSCKASGYTFSTYGIIWVRQAPGQGLEWMGWISAFNGNANSAQKLQDRVTMTTDTSTSTAYMELRSLRSDDTAVYYCARGEDFFDYWGQGTLVTVSS
VL: DIVMTQTPLSSPVTLGQPASISCRSSQSLVHSDGNTYLSWLQQRPGQPPRLLIYKVSSRFSGVPDRFSGSGAGTDFTLKISRVEAEDVGVYYCTQSTQFPFTFGRGTKLEIK
notes: The mouse IgG2a, IgG1 and IgG1 D265A chimeras were used only in the tumour models; also called R2-5
B3: R2_mAb-6 (antibody, V domains shown)
VH: QVQLVQSGAEVKKPGASVKVSCKASGYTFLSYGLSWVRQAPGQGLEWMGWINAYNGNTNYAQNLQDRVTMTTDTSTSTAYMELRSLRSDDMAVYYCARWDILTAYYSSDAFDIWGQGTMVTVSS
VL: B2 VL with S39N, S58N, S96T, F101I, R105Q, K108R
notes: also called R2-6
B4: R2_mAb-2 (antibody, V domains shown)
VH: QVQLVQSGPEVKKPGASVKVSCKASGYTFTNYGISWVRQAPGQGLEWMGWINAYNGNTNYAQKLQGRVTMTTDTSTSTAYMELRSLRSDDTAVYYCARDGGYGSGTYHNDYYYYYGMDVWGQGTTVTVSS
VL: EIVLTQSPDFQSMTPEEKVTITCRASQSIGSNLHWYQQKPDQSPKLLIKFASQSISGVPSRFSGSGSGTDFTLTINSLEAEDAATYYCHQSSSLPFTFGPGTKVDIK
notes: also called R2-2
B5: R2_mAb-4 (antibody, V domains shown)
VH: QVQLVQSGAEVRKPGASVKVSCKASGYTFTSYSVTWVRQAPGQGLEWMGWINAFSGNTHYAQNLQDRVTMTTDTSTSTAYMELRSLRSDDTAVYYCAREEGSGSYEDYYGMDVWGQGTTVTVSS
VL: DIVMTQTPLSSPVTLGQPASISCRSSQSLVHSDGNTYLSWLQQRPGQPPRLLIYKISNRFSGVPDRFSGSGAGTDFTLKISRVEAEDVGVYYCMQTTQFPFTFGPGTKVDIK
notes: The mouse IgG2a chimera was used only in the tumour models; also called R2-4
B6: R2_mAb-1 (antibody, V domains shown)
VH: QVQLVESGGGVVQPGRSLRLSCAASGFTFSSYGMHWVRQAPGKGLEWVAVIWFDEDNKDYADSVKGRFTISRDNSKNTLYLQMSSLRAEDTAVYYCARDNDILTGYYYYYGMDVWGQGTTVTVSS
VL: DIQLTQSPSFLSASVGDRVTITCRASQDISSYLAWYQQKPGKAPKLLIYAASTLQSGVPSRFSGSGSGTEFTLTISSLQPEDFATYYCQQLNSYPPTFGQGTKVEIK
notes: The VH/VL pair is read from parallel lists; also called R2-1

Assays:
[1] = biological target: T1, human TNFR2 expressed on cells (stably …); experiment: binding to cells stably overexpressing human TNFR2 (flow cytometry / imaging; text says HEK293T, table title says CHO-K1)
[2] = biological target: T2, mouse TNFR2 stably overexpressed on …; experiment: flow cytometry on HEK293T cells stably overexpressing mouse TNFR2
[3] = biological target: T3, human TNFR1 stably overexpressed on …; experiment: flow cytometry on CHO-K1 cells stably overexpressing human TNFR1

Binder	EC50 [1]	binding result [2]	binding result [3]
B1	0.38 nM	no binding (tested: 10μg/mL)	no binding (tested: 10μg/mL)
B2	0.1 nM	no binding (tested: 10μg/mL)	no binding (tested: 10μg/mL)
B3	0.14 nM	no binding (tested: 10μg/mL)	no binding (tested: 10μg/mL)
B4	0.35 nM	no binding (tested: 10μg/mL)	no binding (tested: 10μg/mL)
B5	0.11 nM	no binding (tested: 10μg/mL)	no binding (tested: 10μg/mL)
B6	0.1 nM	no binding (tested: 10μg/mL)	no binding (tested: 10μg/mL)
